T1: TrwCR (N-terminal relaxase domain of TrwC) (UniProt Q47673 1-293)
T1 sequence: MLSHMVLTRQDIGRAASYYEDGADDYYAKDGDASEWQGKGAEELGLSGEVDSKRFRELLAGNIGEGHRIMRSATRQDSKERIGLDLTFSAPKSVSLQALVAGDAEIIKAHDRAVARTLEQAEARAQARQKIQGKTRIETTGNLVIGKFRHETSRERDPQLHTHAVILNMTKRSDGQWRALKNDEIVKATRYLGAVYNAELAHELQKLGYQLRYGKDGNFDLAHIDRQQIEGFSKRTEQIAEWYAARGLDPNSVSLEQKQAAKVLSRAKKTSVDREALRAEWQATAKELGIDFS

T2: TraIR (N-terminal domain of TraI) (plasmid RP4, UniProt Q00191 1-270)
T2 sequence: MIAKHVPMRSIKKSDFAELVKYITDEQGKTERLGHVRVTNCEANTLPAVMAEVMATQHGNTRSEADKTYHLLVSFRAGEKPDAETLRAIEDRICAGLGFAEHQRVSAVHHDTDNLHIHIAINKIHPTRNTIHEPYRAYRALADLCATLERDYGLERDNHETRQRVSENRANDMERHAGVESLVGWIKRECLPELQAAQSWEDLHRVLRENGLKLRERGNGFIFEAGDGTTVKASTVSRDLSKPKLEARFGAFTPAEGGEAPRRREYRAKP

T3: MobAR (minMobA) (plasmid RSF1010, UniProt P07112 1-186)
T3 sequence: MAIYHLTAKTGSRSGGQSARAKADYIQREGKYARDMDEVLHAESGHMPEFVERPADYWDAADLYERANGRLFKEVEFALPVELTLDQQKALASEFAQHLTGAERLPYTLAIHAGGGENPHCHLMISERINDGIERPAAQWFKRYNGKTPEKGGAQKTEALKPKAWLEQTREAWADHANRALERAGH

The target in one data set is T1, TrwCR (N-terminal relaxase domain of …). As to the kind of experiment: SDS-PAGE covalent complex; 5 mM Mg2+; text says product not detected; Covalent complex: 15 uM oligo, 37 C 1 h, 5 mM MgCl2, 15 uM EDTA; TrwCR 10 mM Tris pH 7.6, 375 mM NaCl; MobAR 25 mM Tris pH 8.0, 225 mM NaCl; TraIR 10 mM Tris pH 7.6, 225 mM NaCl. EMSA: 50 nM oligo, 10 mM Tris pH 7.6, 100 mM NaCl, 1 mM EDTA, RT 30 min. Gel filtration: 100 mM Tris pH 7.6, 200 mM NaCl, EDTA. To be noted: protein: recombinant; hairpin. On the technique in general: In gel filtration, larger molecules generally elute earlier.
Regarding ATAGCCCAGATCGCACCGAAAGGTGCG (structured_DNA) [R388 R(0+27)], the binding signal came to 5.8 ± 1.9 % covalent complex. On the same count and under the same terms, the same measure for GTCTATAGCCCAGATCGCACCGAAAGGTGCG (structured_DNA) [R388 R(4+27)]: 9.9 ± 3.9 % covalent complex; for TATAGCCCAGATCGCACCGAAAGGTGCG (structured_DNA) [R388 R(1+27)]: 9.9 ± 3.2 % covalent complex.

The target is the same in the next data set. As to the kind of experiment: gel filtration; EDTA; Covalent complex: 15 uM oligo, 37 C 1 h, 5 mM MgCl2, 15 uM EDTA; TrwCR 10 mM Tris pH 7.6, 375 mM NaCl; MobAR 25 mM Tris pH 8.0, 225 mM NaCl; TraIR 10 mM Tris pH 7.6, 225 mM NaCl. EMSA: 50 nM oligo, 10 mM Tris pH 7.6, 100 mM NaCl, 1 mM EDTA, RT 30 min. Gel filtration: 100 mM Tris pH 7.6, 200 mM NaCl, EDTA. Particulars: protein: recombinant; hairpin.
AACCGGCTAGGTGCGTATTGTCTATAGCCCAGATCGCACCTAGCCGGTT (structured_DNA) [R388 H(23+26)]: the binding result is “binds”. Same read-out and setting: in the case of CCGGTGCGTATTGTCTATAGCCCGCGCACCGG (structured_DNA) [R388 H(16+16)] it was “binds”.

Take AACCGGCTAGGTGCGTATTGTCTATAGCCCACGCACCTAGCCGGTT (structured_DNA) [R388 H(23+23)]: the binding result was “binds”.

The target is the same in a further data set. Nature of the data set: gel filtration; EDTA; slight shift; Covalent complex: 15 uM oligo, 37 C 1 h, 5 mM MgCl2, 15 uM EDTA; TrwCR 10 mM Tris pH 7.6, 375 mM NaCl; MobAR 25 mM Tris pH 8.0, 225 mM NaCl; TraIR 10 mM Tris pH 7.6, 225 mM NaCl. EMSA: 50 nM oligo, 10 mM Tris pH 7.6, 100 mM NaCl, 1 mM EDTA, RT 30 min. Gel filtration: 100 mM Tris pH 7.6, 200 mM NaCl, EDTA. Particulars: protein: recombinant; hairpin.
As to ATTGTCTATAGCCCAGATCGCACCGAAAGGTGCG (structured_DNA) [R388 R(7+27)], the binding result is listed as “binds”.

A further data set addresses T2, TraIR (N-terminal domain of TraI). Nature of the data set: SDS-PAGE covalent complex; 5 mM Mg2+; Covalent complex: 15 uM oligo, 37 C 1 h, 5 mM MgCl2, 15 uM EDTA; TrwCR 10 mM Tris pH 7.6, 375 mM NaCl; MobAR 25 mM Tris pH 8.0, 225 mM NaCl; TraIR 10 mM Tris pH 7.6, 225 mM NaCl. EMSA: 50 nM oligo, 10 mM Tris pH 7.6, 100 mM NaCl, 1 mM EDTA, RT 30 min. Gel filtration: 100 mM Tris pH 7.6, 200 mM NaCl, EDTA. Particulars: protein: recombinant.
On to ACTTCACCTATCCTGCCCGGC (ssDNA) [RP4 WP(15+6)], for which the binding signal amounted to 24.4 ± 5.7 % covalent complex.

The data set is the same for the next values; noted with them: protein: recombinant; hairpin.
Regarding CTATCCTGCCCGGCTGGTGAAGGAAACTTCAC (structured_DNA) [RP4 RP(8+24)], the binding signal was found to be 23.7 ± 2.7 % covalent complex. Consider GTGAAGGAAACTTCACCTATCCTGCCCGGCTG (structured_DNA) [RP4 WP(24+8)], for which the binding signal amounted to 21.3 ± 0.9 % covalent complex.

Another data set deals with T3, MobAR (minMobA). Described as above. Particulars: protein: recombinant; hairpin.
In the case of GAGAAACCGGTAAGTGCGCCCTCCCGATCAGTTTCTC (structured_DNA) [RSF1010 HQ(18+19)], the binding signal was determined as 9 ± 3.1 % covalent complex. As for CAGTTTCTCGAAGAGAAACCGGTAAGTGCGCCCTCCC (structured_DNA) [RSF1010 WQ(30+7)], the binding signal was determined as 43.9 ± 1.4 % covalent complex. Turning to CCGGTTGAAAACCGGTAAGTGCGCCCTCCCC (structured_DNA) [RSF1010 WQ(23+7)], the binding signal stood at 41.4 ± 1.3 % covalent complex. Still for that read-out and setting: in the case of GAGAAACCGGTAAGTGCGCCCTCCCCAGTTTCTC (structured_DNA) [RSF1010 HQ(18+16)] it was 13.1 ± 4.2 % covalent complex.

The next data set deals with T1, TrwCR (N-terminal relaxase domain of …). The data set is described as above. Particulars: protein: recombinant.
For the molecule GGTGCGTATTGTCTATAGCCCAGATTTA (ssDNA) [R388 W(14+14)], the binding signal turned out to be 19.8 ± 1.9 % covalent complex. Same read-out and setting: in the case of TATTGTCTATAGCCCACGCACC (ssDNA) [R388 R(8+14)] it was 30.2 ± 4.9 % covalent complex.

The data set is the same for the next values; noted with them: protein: recombinant; hairpin.
With TATTGTCTATAGCCCAGATCGCACCGAAAGGTGCG (structured_DNA) [R388 R(8+27)], the binding signal was 44.7 ± 1 % covalent complex. The same measure, in the same setting: in the case of GGTGCGTATTGTCTATAGCGCGCACC (structured_DNA) [R388 H(14+12)] it was 25.5 ± 3.1 % covalent complex; in that of GGTGCGTATTGTCTATAGCCGCGCACC (structured_DNA) [R388 H(14+13)], 23.3 ± 2.9 % covalent complex; in that of GCGCACCGAAAGGTGCGTATTGTCTATAGCCCAGATTTAAGGA (structured_DNA) [R388 W(25+18)], 24.7 ± 2.1 % covalent complex. Same read-out and setting: the same measure for GGTGCGTATTGTCTATAGCCCAGATCGCACC (structured_DNA) [R388 H(14+17)]: 22.3 ± 6.1 % covalent complex; for GGTGCGTATTGTCTATAGCCCAGCGCACC (structured_DNA) [R388 H(14+15)]: 19.6 ± 1.4 % covalent complex. On to GGTGCGTATTGTCTATCGCACC (structured_DNA) [R388 H(14+8)], for which the binding signal came to 22.4 ± 5.7 % covalent complex. Same read-out and setting: the same measure for TATTGTCTATAGCCCACGCACCGAAAGGTGCG (structured_DNA) [R388 R(8+24)]: 45.3 ± 6.6 % covalent complex. Still for that read-out and setting: the same measure for GGTGCGTATTGTCTATAGCCCGCGCACC (structured_DNA) [R388 H(14+14)]: 26.8 ± 4.7 % covalent complex. For the molecule GGTGCGTATTGTCTATAGCGCACC (structured_DNA) [R388 H(14+10)], the binding signal turned out to be 23 ± 4.7 % covalent complex.

For the origin of these results see paper PMC4814116, “Design of Novel Relaxase Substrates Based on Rolling Circle Replicases for Bioconjugation to DNA Nanostructures”.
